From publication PMC11988454, “Discovery of synthetic small molecules targeting the central regulator of Salmonella pathogenicity” (Science Advances, 2025)

What was measured:
HilD = target: T1, HilD (Salmonella enterica serovar Typhimurium, UniProt P0CL08 1-309); experiment: EMSA; no C26; conditions: protein: recombinant; tags: His6-SUMO removed by SUMO protease; chain copies: 2; label: 5'-Cy5 on strand 1; blunt
T1 sequence: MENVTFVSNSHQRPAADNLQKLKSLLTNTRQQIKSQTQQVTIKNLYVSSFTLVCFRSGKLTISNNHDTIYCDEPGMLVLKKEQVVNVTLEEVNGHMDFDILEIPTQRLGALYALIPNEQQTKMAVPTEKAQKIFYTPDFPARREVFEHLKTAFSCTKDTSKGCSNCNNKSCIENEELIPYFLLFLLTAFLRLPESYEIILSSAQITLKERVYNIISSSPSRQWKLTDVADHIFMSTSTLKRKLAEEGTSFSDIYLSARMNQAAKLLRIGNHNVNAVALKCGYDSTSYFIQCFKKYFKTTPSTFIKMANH

HilC = target: T2, HilC (Salmonella enterica serovar Typhimurium, UniProt E1WAB2 1-295); experiment: EMSA; no C26; conditions: protein: recombinant; tags: N-terminal His6-TEV, cleaved by TEV protease; chain copies: 2; label: 5'-Cy5 on strand 1; blunt
T2 sequence: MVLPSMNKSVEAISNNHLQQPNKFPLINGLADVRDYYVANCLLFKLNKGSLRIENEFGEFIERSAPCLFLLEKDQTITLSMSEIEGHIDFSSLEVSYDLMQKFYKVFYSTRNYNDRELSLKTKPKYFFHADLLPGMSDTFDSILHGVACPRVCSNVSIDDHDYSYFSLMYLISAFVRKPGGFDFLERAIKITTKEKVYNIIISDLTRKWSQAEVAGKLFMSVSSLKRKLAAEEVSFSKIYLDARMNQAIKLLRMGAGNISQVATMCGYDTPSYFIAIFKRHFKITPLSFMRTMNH

HilD Y46A = HilD Y46A (Salmonella enterica serovar Typhimurium, UniProt P0CL08 1-309, Y46A); experiment: EMSA; no C26; affinity comparable to WT; conditions: protein: recombinant; tags: His6-SUMO removed by SUMO protease; chain copies: 2; label: 5'-Cy5 on strand 1; blunt
HilD Y212A = HilD Y212A (Salmonella enterica serovar Typhimurium, UniProt P0CL08 1-309, Y212A); experiment: EMSA; no C26; affinity comparable to WT; conditions: protein: recombinant; tags: His6-SUMO removed by SUMO protease; chain copies: 2; label: 5'-Cy5 on strand 1; blunt
HilD I100A = HilD I100A (Salmonella enterica serovar Typhimurium, UniProt P0CL08 1-309, I100A); experiment: EMSA; no C26; affinity comparable to WT; conditions: protein: recombinant; tags: His6-SUMO removed by SUMO protease; chain copies: 2; label: 5'-Cy5 on strand 1; blunt
HilD L45A = HilD L45A (Salmonella enterica serovar Typhimurium, UniProt P0CL08 1-309, L45A); experiment: EMSA; no C26; affinity comparable to WT; conditions: protein: recombinant; tags: His6-SUMO removed by SUMO protease; chain copies: 2; label: 5'-Cy5 on strand 1; blunt

Measured: binding result

B1: PhilA A1 62 bp (dsDNA)
DNA 1: GGGAGTAAAGAAAAGACGATATCATTATTTTGCAAAAAAATATAAAAATAAGCGCACCATTA
DNA 2: TAATGGTGCGCTTATTTTTATATTTTTTTGCAAAATAATGATATCGTCTTTTCTTTACTCCC
binds: HilD | HilC | HilD Y46A | HilD Y212A | HilD I100A | HilD L45A
